Earlier results on two substances are cited in article PMC3193156.

In one data set the test system is His103. To be noted: Resting state (free reduced enzyme).
The test system of another data set is Cys117. Conditions: Resting state (free reduced enzyme).
The target in a further data set is His80 (UniProt position 80, GNGLGHEFLND). As to the kind of experiment: NMR.
In a further data set the target is Cys95 (UniProt position 95, GQSRFCIFSSS). Briefly: NMR.

As a reminder, the pKa is the pH at which an ionisable group is half protonated. On to “Methionine sulfoxide reductase B (MsrB domain of PilB) (Neisseria meningitidis)”, for which the values for the pKa in the data set on His103 and in the data set on Cys117 were 6.6 and 9.3, respectively.
With “Methionine-R-sulfoxide reductase B1 (MsrB1, selenoprotein R), Cys95 form (Mus musculus; U95C)”, the pKa with His80 is recorded as 5.7; with Cys95 it was 6.0.
